We go through 6 molecules from US20210253662A1, “Long-Acting Recombinant GLP1-Fc-CD47 Protein and Preparation and Use Thereof” (ZHEJIANG PALO ALTO PHARMACEUTICALS, INC, priority 2018, published 2021).

One data set concerns Male C57BL/KsJ mice. The data set can be described thus: Intraperitoneal glucose tolerance test (IPGTT) after a single s.c. dose. Type of data set: in vivo. The settings on record: s.c. 30 nmol/kg. As to the method: Male C57BL/KsJ mice of 6 weeks old are randomized into a vehicle control group, a positive drug group and a test protein group according to body weights and blood glucose levels, and are subcutaneously (s.c.) injected with corresponding drugs. An intraperitoneal glucose tolerance test (IPGTT) is performed after dosing for a period of time following the steps as follows: fast the mice for 6 h, collect blood samples from tail veins of the mice in each group before the test, measure the blood glucose levels with a Roche ACCU-CHEK blood glucose meter and record the results at a −60 min time point; measure blood glucose levels again at 0 min in each group before intraperitoneally injecting 2 g/kg glucose (body weight), afterwards measure and record blood glucose levels of mice in each group at 15 min, 30 min, 60 min and 120 min. An IPGTT curve is plotted based on the blood glucose levels to calculate the areas under curve (AUC0-120 min (mM*min)), and the differences are statistically analyzed using the t-test.

The conditions of data set [1]: background statement; cited from earlier work.
Data set [2] is described as follows: Stability in rat serum in vitro, read as remaining activity in activating hGLP-1R. Type of data set: in vitro ADME. The settings on record: 37° C., activity at 0.03 nM, day 0 as 100%. The source says: The decay rate of protein activity indirectly reflects the stability of the protein in the serum.
The target in the next data set is human GLP-1 receptor (human, UniProt P43220 24-463). The data set can be described thus: cell-based or functional assay.

With “L1: L1 protein (dulaglutide, SEQ ID NO.: 11), GLP-1-Fc fusion protein, positive control, dimer [reference compound]”, in the data set with Male C57BL/KsJ mice (seven days after a single dose, IPGTT AUC0-120 min), the “Decrease of area under curve (AUC) in blood glucose vs solvent control group” value came out at 14.8%. In the data set on Male C57BL/KsJ mice (ten days after a single dose, IPGTT), the “Hypoglycemic activity (AUC) ten days post-dose” value is recorded as “no significant decrease”. Moreover, in data set [1], the half-life in vivo was 108 to 113 h. Also, in data set [2], the “Decrease in activity after 7 days of incubation in serum” value worked out at 33.3%. For HGEGTFTSDVSSYLEEQAAKEFIAWLVKGGG [Gly8-Glu22-Gly36-GLP1(7-37)], in the data set with human GLP-1 receptor, the “Activity of Activated hGLP-1R (relative value from EC50, CRE-NanoLuc luciferase reporter in AD293 cells; 100% for GLP1 (7-37))” value came to 121%. HGEGTFTSDVSSYLEEQAAKEFIAWLVRGAG [Gly8-Glu22-Arg34-Ala36-GLP1(7-37)]: in the data set with human GLP-1 receptor, the “Activity of Activated hGLP-1R (relative value from EC50, CRE-NanoLuc luciferase reporter in AD293 cells; 100% for GLP1 (7-37))” value was found to be 168%. As for HGEGTFTSDVSSYLEEQAAKEFIAWLVRGGG [Gly8-Glu22-Arg34-Gly36-GLP1(7-37)], the “Activity of Activated hGLP-1R (relative value from EC50, CRE-NanoLuc luciferase reporter in AD293 cells; 100% for GLP1 (7-37))” value with human GLP-1 receptor stood at 163%. Still for that read-out and setting: then HGEGTFTSDVSSYLEEQAAKEFIAWLVRGLG [Gly8-Glu22-Arg34-Leu36-GLP1(7-37)], with 113%; and HGEGTFTSDVSSYLEEQAAKEFIAWLVRGVG [Gly8-Glu22-Arg34-Val36-GLP1(7-37)], with 142%.
